Laboratory results from the supplement of paper PMC9732359.
± gives the uncertainty stated by the source.

Assay: protein stability index of a GFP-peptide fusion (yeast GPS) (PSI 1-4); higher = more stable; sorted into four equal gates, so the index is relative within each strain
Procedure, shortened: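 Mid-log yeast cultures in leucine-free medium, carrying a pooled plasmid library, were sorted into four equal gates by their GFP/Cherry fluorescence ratio. Each plasmid expressed Cherry along with GFP fused upstream of a tiled 17-residue yeast protein peptide. Plasmids recovered from each gate were PCR-amplified and Illumina-sequenced, with reads assigned to strains by barcodes. The protein stability index was obtained by summing each gate's read frequency weighted by its gate number.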

## AAASLPSKKLKTEDGFV [RPC82]
doa10∆
  protein stability index: 3.21 ± 0.1
pdr5∆
  protein stability index: 3.09 ± 0.1
san1∆
  protein stability index: 2.84 ± 0.091
ubr1∆
  protein stability index: 3.04 ± 0.065

## AACEKLLPPIKIELIKN [RPN12]
doa10∆
  protein stability index: 1.98 ± 0.19
pdr5∆
  protein stability index: 2.25 ± 0.094
san1∆
  protein stability index: 2.44 ± 0.098
ubr1∆
  protein stability index: 1.99 ± 0.072

## AADTSIVEQDKSMELFY [YJL039C/NUP192]
doa10∆
  protein stability index: 2.07 ± 0.11
pdr5∆
  protein stability index: 2.61 ± 0.13
san1∆
  protein stability index: 2.63 ± 0.084
ubr1∆
  protein stability index: 2.73 ± 0.2

## AAESKKYRQTKLSKEER [RPL5]
doa10∆
  protein stability index: 3.1 ± 0.23
san1∆
  protein stability index: 3.05 ± 0.22
ubr1∆
  protein stability index: 3.06 ± 0.26

## AAPAATSAASGDAAPAE [RPP0]
doa10∆
  protein stability index: 2.6 ± 0.091
pdr5∆
  protein stability index: 2.38 ± 0.049
san1∆
  protein stability index: 1.6 ± 0.1
ubr1∆
  protein stability index: 2.42 ± 0.063

## AAPLLALLRENQDSVKT [RPN2]
doa10∆
  protein stability index: 2.55 ± 0.18
pdr5∆
  protein stability index: 3.23 ± 0.1
san1∆
  protein stability index: 3 ± 0.15
ubr1∆
  protein stability index: 2.6 ± 0.11

## AARHRARFRSIHILKVA [RPL20A]
doa10∆
  protein stability index: 1.22 ± 0.077
pdr5∆
  protein stability index: 1.18 ± 0.042
san1∆
  protein stability index: 1.22 ± 0.11
ubr1∆
  protein stability index: 1.1 ± 0.059

## AASFKKLYKTPIPIPAF [PRE10]
doa10∆
  protein stability index: 2.54 ± 0.14
pdr5∆
  protein stability index: 3.15 ± 0.12
san1∆
  protein stability index: 2.75 ± 0.079
ubr1∆
  protein stability index: 3 ± 0.12

## AASSQVSIVKLDTQLIT [SNF12]
doa10∆
  protein stability index: 1.69 ± 0.08
pdr5∆
  protein stability index: 1.74 ± 0.07
san1∆
  protein stability index: 1.64 ± 0.16
ubr1∆
  protein stability index: 2.02 ± 0.11

## AASVIGMLVALGRLSVR [RPC82]
pdr5∆
  protein stability index: 1.32 ± 0.07
san1∆
  protein stability index: 1.11 ± 0.23
ubr1∆
  protein stability index: 1.24 ± 0.097

## AAVIMRCKIYFFYLRIS [PCI8]
doa10∆
  protein stability index: 1.33 ± 0.067
pdr5∆
  protein stability index: 1.35 ± 0.06
san1∆
  protein stability index: 1.15 ± 0.11
ubr1∆
  protein stability index: 1.09 ± 0.088

## AAVVKTSSRQTVFLPMV [RPT5]
doa10∆
  protein stability index: 3.02 ± 0.051
pdr5∆
  protein stability index: 3.15 ± 0.056
san1∆
  protein stability index: 2.97 ± 0.051
ubr1∆
  protein stability index: 2.87 ± 0.061

## ADDADIEMKDVSSKPSK [MED1]
doa10∆
  protein stability index: 3.17 ± 0.1
pdr5∆
  protein stability index: 3.29 ± 0.11
san1∆
  protein stability index: 2.95 ± 0.065
ubr1∆
  protein stability index: 3.26 ± 0.066

## ADDHASVQINVAKVDEE [RPS21A]
doa10∆
  protein stability index: 3.26 ± 0.062
pdr5∆
  protein stability index: 3.08 ± 0.072
san1∆
  protein stability index: 3.13 ± 0.045
ubr1∆
  protein stability index: 3.26 ± 0.04

## ADEMGLGKTIQTISLLT [SNF2]
doa10∆
  protein stability index: 1.73 ± 0.092
pdr5∆
  protein stability index: 2.5 ± 0.086
san1∆
  protein stability index: 2.46 ± 0.08
ubr1∆
  protein stability index: 2.41 ± 0.075

## ADKIVDEFPELKEPVED [NUT2]
doa10∆
  protein stability index: 3.71 ± 0.15
pdr5∆
  protein stability index: 3.52 ± 0.11
san1∆
  protein stability index: 3.23 ± 0.27
ubr1∆
  protein stability index: 3.63 ± 0.14

## ADKRGVLTGGYLDQHKR [SMC3]
doa10∆
  protein stability index: 2.46 ± 0.11
pdr5∆
  protein stability index: 2.54 ± 0.1
san1∆
  protein stability index: 2.72 ± 0.074
ubr1∆
  protein stability index: 2.94 ± 0.052

## ADKSLPSSMATLLKNLR [YJR042W/NUP85]
doa10∆
  protein stability index: 2.97 ± 0.081
pdr5∆
  protein stability index: 2.81 ± 0.077
san1∆
  protein stability index: 2.87 ± 0.054
ubr1∆
  protein stability index: 2.86 ± 0.057

## ADLERFFLSIYFFYASR [YJL039C/NUP192]
doa10∆
  protein stability index: 1.68 ± 0.073
pdr5∆
  protein stability index: 1.12 ± 0.13
san1∆
  protein stability index: 1.22 ± 0.12
ubr1∆
  protein stability index: 1.55 ± 0.072

## ADLKKGKDLSPAINYTK [QCR2]
doa10∆
  protein stability index: 3.26 ± 0.13
pdr5∆
  protein stability index: 3.36 ± 0.08
san1∆
  protein stability index: 3.32 ± 0.086
ubr1∆
  protein stability index: 3.23 ± 0.065

## ADLRPLQIKSIREIDVT [RPS7B]
pdr5∆
  protein stability index: 2.72 ± 0.26
san1∆
  protein stability index: 2.53 ± 0.23
ubr1∆
  protein stability index: 2.88 ± 0.1

## AEKKIPLVIRRYLPDGS [RPO26]
doa10∆
  protein stability index: 2.79 ± 0.09
pdr5∆
  protein stability index: 2.54 ± 0.12
san1∆
  protein stability index: 3.45 ± 0.066

## AELKLAGEFGLKNKREI [RPS9B]
doa10∆
  protein stability index: 3.08 ± 0.11
pdr5∆
  protein stability index: 3.21 ± 0.15
san1∆
  protein stability index: 3.2 ± 0.18
ubr1∆
  protein stability index: 3.21 ± 0.12

## AEQFKHQHGDKVDIFEI [FAS2]
ubr1∆
  protein stability index: 3.06 ± 0.21

## AETIILSSAGKNSSVSS [SRB5]
doa10∆
  protein stability index: 1.65 ± 0.063
pdr5∆
  protein stability index: 2.17 ± 0.051
san1∆
  protein stability index: 2.06 ± 0.083
ubr1∆
  protein stability index: 1.89 ± 0.075

## AEVNGGDDEATEIISTL [BRR2]
doa10∆
  protein stability index: 3.33 ± 0.094
pdr5∆
  protein stability index: 3.1 ± 0.13
san1∆
  protein stability index: 3.43 ± 0.095
ubr1∆
  protein stability index: 3.11 ± 0.21

## AEWSLVRIYSGLLKRGD [SNU114]
doa10∆
  protein stability index: 2.95 ± 0.093
pdr5∆
  protein stability index: 3.27 ± 0.1
san1∆
  protein stability index: 3.26 ± 0.079
ubr1∆
  protein stability index: 3.29 ± 0.12
